# In paper PMC10786891, “Massively parallel profiling of RNA-targeting CRISPR-Cas13d”:
# T1: EsCas13d, nuclease-dead (Eubacterium siraeum, UniProt B0MS50, R295A;H300A;R849A;H854A)
# T1 sequence: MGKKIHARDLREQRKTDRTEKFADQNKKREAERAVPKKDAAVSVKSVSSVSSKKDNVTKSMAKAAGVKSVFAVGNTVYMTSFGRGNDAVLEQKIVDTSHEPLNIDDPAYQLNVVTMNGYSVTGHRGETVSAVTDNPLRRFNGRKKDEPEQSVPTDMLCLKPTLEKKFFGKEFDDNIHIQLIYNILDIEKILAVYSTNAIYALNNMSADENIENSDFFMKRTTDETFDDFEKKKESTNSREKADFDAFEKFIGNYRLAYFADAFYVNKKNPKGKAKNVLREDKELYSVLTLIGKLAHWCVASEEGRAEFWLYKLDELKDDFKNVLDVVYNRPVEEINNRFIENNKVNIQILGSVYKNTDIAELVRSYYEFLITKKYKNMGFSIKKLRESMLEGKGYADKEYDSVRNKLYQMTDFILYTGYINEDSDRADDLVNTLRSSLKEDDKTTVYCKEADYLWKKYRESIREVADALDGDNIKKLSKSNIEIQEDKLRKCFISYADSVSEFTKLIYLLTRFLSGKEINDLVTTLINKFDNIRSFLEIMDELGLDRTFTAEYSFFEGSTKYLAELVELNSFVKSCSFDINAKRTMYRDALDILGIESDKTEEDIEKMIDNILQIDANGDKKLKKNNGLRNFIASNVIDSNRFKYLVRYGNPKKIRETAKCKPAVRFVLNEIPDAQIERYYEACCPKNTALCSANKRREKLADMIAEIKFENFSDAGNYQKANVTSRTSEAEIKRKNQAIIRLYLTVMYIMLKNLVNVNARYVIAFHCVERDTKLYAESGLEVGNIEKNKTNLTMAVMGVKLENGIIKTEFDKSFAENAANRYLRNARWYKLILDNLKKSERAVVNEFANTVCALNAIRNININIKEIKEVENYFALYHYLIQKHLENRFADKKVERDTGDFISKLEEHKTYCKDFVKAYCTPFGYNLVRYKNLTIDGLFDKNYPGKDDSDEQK
# B1: target 3 insC 3' of 22,insA 3' of 2 (mixed)
# RNA 1: CACCCGUGCAAAAUUGCAGGGGUCUAAAACGACCUGAAUAUUUCAGAUCAAA
# RNA 2: GGGAAUGGAUCCACAUCUACGAAUUCGUUUCUUGAUCUGAAAUAUUCAGGUACUGCAGAUCGGAAGAGCACACGU
# B2: target 3 insC 3' of 12,insU 3' of 4 (mixed)
# RNA 1: CACCCGUGCAAAAUUGCAGGGGUCUAAAACGACCUGAAUAUUUCAGAUCAAA
# RNA 2: GGGAAUGGAUCCACAUCUACGAAUUCGUUUUUGAUCUGAACAUAUUCAGUGUCUGCAGAUCGGAAGAGCACACGU
# B3: target 3 insC 3' of 3,insU 3' of 1 (mixed)
# RNA 1: CACCCGUGCAAAAUUGCAGGGGUCUAAAACGACCUGAAUAUUUCAGAUCAAA
# RNA 2: GGGAAUGGAUCCACAUCUACGAAUUCGUUUUUGAUCUGAAAUAUUCAGGCUCUUGCAGAUCGGAAGAGCACACGU
# B4: target 3 insU 3' of 9,insC 3' of 9 (mixed)
# RNA 1: CACCCGUGCAAAAUUGCAGGGGUCUAAAACGACCUGAAUAUUUCAGAUCAAA
# RNA 2: GGGAAUGGAUCCACAUCUACGAAUUCGUUUUUGAUCUGAAAUAUCUUCAGGUCUGCAGAUCGGAAGAGCACACGU
# B5: target 3 U2C,C6U (mixed)
# RNA 1: CACCCGUGCAAAAUUGCAGGGGUCUAAAACGACCUGAAUAUUUCAGAUCAAA
# RNA 2: GGGAAUGGAUCCACAUCUACGAAUUCGUUUUUGAUCUGAAAUAUUUAGGCCUGCAGAUCGGAAGAGCACACGU
# B6: target 3 insA 3' of 15,insA 3' of 2 (mixed)
# RNA 1: CACCCGUGCAAAAUUGCAGGGGUCUAAAACGACCUGAAUAUUUCAGAUCAAA
# RNA 2: GGGAAUGGAUCCACAUCUACGAAUUCGUUUUUGAUCUAGAAAUAUUCAGGUACUGCAGAUCGGAAGAGCACACGU
# B7: target 3 C1U,G14U (mixed)
# RNA 1: CACCCGUGCAAAAUUGCAGGGGUCUAAAACGACCUGAAUAUUUCAGAUCAAA
# RNA 2: GGGAAUGGAUCCACAUCUACGAAUUCGUUUUUGAUCUUAAAUAUUCAGGUUUGCAGAUCGGAAGAGCACACGU
# B8: target 3 U2A,U22A (mixed)
# RNA 1: CACCCGUGCAAAAUUGCAGGGGUCUAAAACGACCUGAAUAUUUCAGAUCAAA
# RNA 2: GGGAAUGGAUCCACAUCUACGAAUUCGUUAUUGAUCUGAAAUAUUCAGGACUGCAGAUCGGAAGAGCACACGU
# B9: target 3 U2G,U8A (mixed)
# RNA 1: CACCCGUGCAAAAUUGCAGGGGUCUAAAACGACCUGAAUAUUUCAGAUCAAA
# RNA 2: GGGAAUGGAUCCACAUCUACGAAUUCGUUUUUGAUCUGAAAUAAUCAGGGCUGCAGAUCGGAAGAGCACACGU
# B10: target 3 insA 3' of 7,insU 3' of 4 (mixed)
# RNA 1: CACCCGUGCAAAAUUGCAGGGGUCUAAAACGACCUGAAUAUUUCAGAUCAAA
# RNA 2: GGGAAUGGAUCCACAUCUACGAAUUCGUUUUUGAUCUGAAAUAUUACAGUGUCUGCAGAUCGGAAGAGCACACGU
# B11: target 3 G4U,C6A (mixed)
# RNA 1: CACCCGUGCAAAAUUGCAGGGGUCUAAAACGACCUGAAUAUUUCAGAUCAAA
# RNA 2: GGGAAUGGAUCCACAUCUACGAAUUCGUUUUUGAUCUGAAAUAUUAAUGUCUGCAGAUCGGAAGAGCACACGU
# B12: target 3 insA 3' of 22,insG 3' of 5 (mixed)
# RNA 1: CACCCGUGCAAAAUUGCAGGGGUCUAAAACGACCUGAAUAUUUCAGAUCAAA
# RNA 2: GGGAAUGGAUCCACAUCUACGAAUUCGUUUAUUGAUCUGAAAUAUUCAGGGUCUGCAGAUCGGAAGAGCACACGU
# B13: target 3 G3C,G4C (mixed)
# RNA 1: CACCCGUGCAAAAUUGCAGGGGUCUAAAACGACCUGAAUAUUUCAGAUCAAA
# RNA 2: GGGAAUGGAUCCACAUCUACGAAUUCGUUUUUGAUCUGAAAUAUUCACCUCUGCAGAUCGGAAGAGCACACGU
# B14: target 3 G4U,U22C (mixed)
# RNA 1: CACCCGUGCAAAAUUGCAGGGGUCUAAAACGACCUGAAUAUUUCAGAUCAAA
# RNA 2: GGGAAUGGAUCCACAUCUACGAAUUCGUUCUUGAUCUGAAAUAUUCAUGUCUGCAGAUCGGAAGAGCACACGU
# B15: target 3 A12G,U21A (mixed)
# RNA 1: CACCCGUGCAAAAUUGCAGGGGUCUAAAACGACCUGAAUAUUUCAGAUCAAA
# RNA 2: GGGAAUGGAUCCACAUCUACGAAUUCGUUUAUGAUCUGAGAUAUUCAGGUCUGCAGAUCGGAAGAGCACACGU
# B16: target 3 insC 3' of 4,insC 3' of 4 (mixed)
# RNA 1: CACCCGUGCAAAAUUGCAGGGGUCUAAAACGACCUGAAUAUUUCAGAUCAAA
# RNA 2: GGGAAUGGAUCCACAUCUACGAAUUCGUUUUUGAUCUGAAAUAUUCAGCCGUCUGCAGAUCGGAAGAGCACACGU
# B17: target 3 insC 3' of 4,insU 3' of 1 (mixed)
# RNA 1: CACCCGUGCAAAAUUGCAGGGGUCUAAAACGACCUGAAUAUUUCAGAUCAAA
# RNA 2: GGGAAUGGAUCCACAUCUACGAAUUCGUUUUUGAUCUGAAAUAUUCAGCGUCUUGCAGAUCGGAAGAGCACACGU
# B18: target 3 A11C,U22A (mixed)
# RNA 1: CACCCGUGCAAAAUUGCAGGGGUCUAAAACGACCUGAAUAUUUCAGAUCAAA
# RNA 2: GGGAAUGGAUCCACAUCUACGAAUUCGUUAUUGAUCUGAACUAUUCAGGUCUGCAGAUCGGAAGAGCACACGU
# B19: target 3 G3U,U21A (mixed)
# RNA 1: CACCCGUGCAAAAUUGCAGGGGUCUAAAACGACCUGAAUAUUUCAGAUCAAA
# RNA 2: GGGAAUGGAUCCACAUCUACGAAUUCGUUUAUGAUCUGAAAUAUUCAGUUCUGCAGAUCGGAAGAGCACACGU
# B20: target 3 C6U,U21G (mixed)
# RNA 1: CACCCGUGCAAAAUUGCAGGGGUCUAAAACGACCUGAAUAUUUCAGAUCAAA
# RNA 2: GGGAAUGGAUCCACAUCUACGAAUUCGUUUGUGAUCUGAAAUAUUUAGGUCUGCAGAUCGGAAGAGCACACGU
# B21: target 3 insA 3' of 3,insC 3' of 3 (mixed)
# RNA 1: CACCCGUGCAAAAUUGCAGGGGUCUAAAACGACCUGAAUAUUUCAGAUCAAA
# RNA 2: GGGAAUGGAUCCACAUCUACGAAUUCGUUUUUGAUCUGAAAUAUUCAGGACUCUGCAGAUCGGAAGAGCACACGU
# B22: target 3 G3C,U22G (mixed)
# RNA 1: CACCCGUGCAAAAUUGCAGGGGUCUAAAACGACCUGAAUAUUUCAGAUCAAA
# RNA 2: GGGAAUGGAUCCACAUCUACGAAUUCGUUGUUGAUCUGAAAUAUUCAGCUCUGCAGAUCGGAAGAGCACACGU
# B23: target 1 G5C,U8C (mixed)
# RNA 1: CACCCGUGCAAAAAUGCAGGGGUCUAAAACUGAGCGGAUAACCUCUCUAUGG
# RNA 2: GGGAAUGGAUCCACAUCUACGAAUUCGUACCAUAGAGAGGUUACCCCCUCACCGAGAUCGGAAGAGCACACGU
# B24: target 1 insU 3' of 18,insG 3' of 11 (mixed)
# RNA 1: CACCCGUGCAAAAAUGCAGGGGUCUAAAACUGAGCGGAUAACCUCUCUAUGG
# RNA 2: GGGAAUGGAUCCACAUCUACGAAUUCGUACCAUAUGAGAGGUGUAUCCGCUCACCGAGAUCGGAAGAGCACACGU
# Biological target: T1, EsCas13d, nuclease-dead
# Test: crRNA (strand 1, pre-loaded); Mg2+; 40 mM Tris-HCl pH 7.5, 150 mM NaCl, 6 mM MgCl2, 1 mM DTT, 0.1% Tween-20, 0.2 mg/ml BSA; 25 C; 10 min per concentration, then washed
# Settings: tags: His6-TwinStrep-SUMO cleaved; N-terminal SNAP kept (SNAP-Surface 488); label: 3' end held by stalled T7 RNA polymerase
row,Binder,Kd
1,B1,59 ± 10 nM
2,B2,~64.5 nM
3,B3,46 ± 6 nM
4,B4,96.5 ± 19 nM
5,B5,52.5 ± 7 nM
6,B6,~64 nM
7,B7,72.5 ± 19 nM
8,B8,32.8 ± 2.85 nM
9,B9,21.6 ± 3.55 nM
10,B10,12.7 ± 1.2 nM
11,B11,29.5 ± 7.5 nM
12,B12,23.1 ± 3.4 nM
13,B13,36.1 ± 5.75 nM
14,B14,4.65 ± 0.85 nM
15,B15,97.5 ± 47 nM
16,B16,34.5 ± 8.5 nM
17,B17,72.5 ± 33.5 nM
18,B18,~90 nM
19,B19,87.5 ± 15.5 nM
20,B20,110 ± 40 nM
21,B21,22.8 ± 2.35 nM
22,B22,79.5 ± 13 nM
23,B23,6.4 ± 0.4 nM
24,B24,78 ± 21 nM
